Measured values reported in US12534534 (F STAR BETA, dated 2026).

How the values were obtained:
[1] = target: T1, human CD137 on DO11.10-hCD137 cells (human, UniProt Q07011 24-255); test: cell binding at 10 nM to DO11.10-hCD137 cells, against the parent FS20-22-49AA/FS30-5
T1 construct: full-length human CD137 over-expressed on DO11.10 cells by lentiviral transduction; also called cell surface-expressed human CD137

[2] = target: T1, human CD137 on DO11.10-hCD137 cells; test: cell-based or functional assay
[3] = target: T1, human CD137 on DO11.10-hCD137 cells; test: cell binding at 10 nM to DO11.10-hCD137 cells, against the parent FS20-22-49AA/FS30-16
cCD137-mFc-Avi = target: T2, cCD137-mFc-Avi (cynomolgus, Homodimer through the mouse Fc (one chain given). In the biotinylated version one biotin sits on the Avi-tag lysine of each monomer.); test: SPR (Biacore 3000), mAb captured by anti-human Fc, dimeric CD137-mFc as analyte, 1:1 model with mass transfer
T2 construct: dimer; biotinylated version used on streptavidin plates; also called cyno CD137-mFc-Avi; cyno CD137-mFc
T2 chain: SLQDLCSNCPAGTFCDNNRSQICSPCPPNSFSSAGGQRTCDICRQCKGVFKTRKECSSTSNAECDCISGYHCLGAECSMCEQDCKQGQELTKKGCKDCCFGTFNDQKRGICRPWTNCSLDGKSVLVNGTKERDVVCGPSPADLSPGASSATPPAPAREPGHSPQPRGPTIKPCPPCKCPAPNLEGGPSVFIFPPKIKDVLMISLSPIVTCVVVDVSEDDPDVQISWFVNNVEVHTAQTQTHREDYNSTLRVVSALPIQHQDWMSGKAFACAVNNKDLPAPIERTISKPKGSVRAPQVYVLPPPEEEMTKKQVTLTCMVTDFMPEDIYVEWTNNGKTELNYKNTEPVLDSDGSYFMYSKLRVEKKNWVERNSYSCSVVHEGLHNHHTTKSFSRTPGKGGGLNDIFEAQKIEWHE
Procedure: Briefly, 25 µg/ml anti-human IgG (Fc) antibody (GE Healthcare, Human Antibody Capture Kit, BR100839) was coated on flow cells 1, 2, 3 and 4 of a Biacore sensor chip CM5 (GE Healthcare, BR100012) for 3 minutes at 5 µl/min, achieving a final response of approximately 4300 RU. The mAb² clones, diluted in HBS-EP buffer (GE Healthcare, BR100188) at 0.5 µg/ml, were injected individually on flows cell 2, 3 and 4 at 30 µl/min to achieve a response of approximately 80 RU. […] Regeneration was achieved by injecting 3 M magnesium chloride (GE Healthcare, Human Antibody Capture Kit, BR100839) for 30 seconds at a rate of 30 µl/min. […] These slightly less stringent conditions were used to assess whether this molecule could bind to cyno CD137-mFc. Subtracted data (flow cell 2-flow cell 1, flow cell 3-flow cell 1, or flow cell 4-flow cell 1) were analysed using BIAevaluation 3.2 Software (GE Healthcare) to identify binding using the model 1:1 binding with mass transfer, with refractive index (RI) constant 0.

GITR-hFc-Avi = target: T3, GITR-hFc-Avi (human, UniProt Q9Y5U5 26-161); test: SPR, antigen immobilised on CM5 chip
T3 construct: in-house produced; not shown: hFc and Avi part
T3 sequence: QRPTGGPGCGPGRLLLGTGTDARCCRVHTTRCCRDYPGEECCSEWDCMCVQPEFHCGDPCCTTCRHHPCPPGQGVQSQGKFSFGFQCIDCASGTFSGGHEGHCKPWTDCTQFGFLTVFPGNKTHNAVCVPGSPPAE
Procedure: (§1) Flow cell 1 was run as a blank immobilisation. The five FS20-22-49AA/FS30 mAb² were diluted to 1 μM and 1 nM in 1×HBS-EP buffer (GE Healthcare, product code BR100188), allowed to flow over the chip for 3 min and then allowed to dissociate for 4 minutes. A 30-second injection of 10 mM glycine pH 1.5 was used for regeneration. […] Binding levels were determined at the end of the association phase and compared.
(§2) Specificity was tested against the same five human TNFRSF members closely-related to CD137 (TNFRSF1A, TNFRSF1B, GITR, NGFR and CD40) plus an additional closely-related TNFRSF member, human DR6 (DR6-Fc; R&D Systems, 144-DR-100), using SPR as described in Example 3.1.

TNFRSF1B-Fc = target: T4, TNFRSF1B-Fc (human, UniProt P20333 23-257); test: SPR, antigen immobilised on CM5 chip
T4 construct: bought; also called TNFRSF1B (R&D Systems, 726-R2-050); not shown: Fc part of the bought fusion
T4 sequence (looked up): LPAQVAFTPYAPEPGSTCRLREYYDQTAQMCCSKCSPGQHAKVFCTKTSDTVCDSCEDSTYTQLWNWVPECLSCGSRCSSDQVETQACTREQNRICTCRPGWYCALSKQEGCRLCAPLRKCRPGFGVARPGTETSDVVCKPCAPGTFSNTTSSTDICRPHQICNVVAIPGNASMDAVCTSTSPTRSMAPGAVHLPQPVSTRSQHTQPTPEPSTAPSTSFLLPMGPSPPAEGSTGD
Procedure: as §1, §2

DR6-Fc = target: T5, DR6-Fc (human, UniProt O75509 42-349, limits assumed); test: SPR, antigen immobilised on CM5 chip
T5 construct: bought; also called human DR6 (R&D Systems, 144-DR-100); not shown: Fc part of the bought fusion
T5 sequence (looked up): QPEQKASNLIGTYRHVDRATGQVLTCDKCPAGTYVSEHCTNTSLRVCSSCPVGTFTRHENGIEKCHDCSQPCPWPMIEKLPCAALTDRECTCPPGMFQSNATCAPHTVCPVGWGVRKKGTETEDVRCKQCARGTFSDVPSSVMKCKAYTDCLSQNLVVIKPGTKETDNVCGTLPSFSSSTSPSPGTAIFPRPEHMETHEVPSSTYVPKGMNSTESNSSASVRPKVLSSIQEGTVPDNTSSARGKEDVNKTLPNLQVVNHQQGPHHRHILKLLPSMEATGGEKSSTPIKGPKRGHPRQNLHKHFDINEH
Procedure: as §1, §2

NGFR-Fc = target: T6, NGFR-Fc (human, UniProt P08138 29-250); test: SPR, antigen immobilised on CM5 chip
T6 construct: bought; also called NGFR (R&D Systems, 367-NR-050/CF); not shown: Fc part of the bought fusion
T6 sequence (looked up): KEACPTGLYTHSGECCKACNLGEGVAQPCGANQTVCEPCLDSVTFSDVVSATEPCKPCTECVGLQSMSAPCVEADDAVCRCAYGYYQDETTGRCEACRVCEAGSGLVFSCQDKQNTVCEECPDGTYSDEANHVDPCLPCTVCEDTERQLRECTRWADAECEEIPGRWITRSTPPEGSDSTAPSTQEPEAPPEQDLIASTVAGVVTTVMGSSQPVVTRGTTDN
Procedure: as §1, §2

CD40-mFc = target: T7, CD40-mFc (human, UniProt P25942 21-193); test: SPR, antigen immobilised on CM5 chip
T7 construct: in-house produced; not shown: mFc part
Procedure: as §1, §2

TNFRSF1A-Fc = target: T8, TNFRSF1A-Fc (human, UniProt P19438 30-211, limits assumed); test: SPR, antigen immobilised on CM5 chip
T8 construct: bought; also called TNFRSF1A (R&D Systems, 372-RI-050/CF); not shown: Fc part of the bought fusion
T8 sequence (looked up): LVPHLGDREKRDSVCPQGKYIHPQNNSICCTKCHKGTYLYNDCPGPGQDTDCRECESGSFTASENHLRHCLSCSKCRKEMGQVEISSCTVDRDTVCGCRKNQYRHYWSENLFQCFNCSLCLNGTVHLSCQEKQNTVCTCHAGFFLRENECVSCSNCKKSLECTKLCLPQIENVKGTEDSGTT
Procedure: as §1, §2

T1 sequence (Q07011 24-255): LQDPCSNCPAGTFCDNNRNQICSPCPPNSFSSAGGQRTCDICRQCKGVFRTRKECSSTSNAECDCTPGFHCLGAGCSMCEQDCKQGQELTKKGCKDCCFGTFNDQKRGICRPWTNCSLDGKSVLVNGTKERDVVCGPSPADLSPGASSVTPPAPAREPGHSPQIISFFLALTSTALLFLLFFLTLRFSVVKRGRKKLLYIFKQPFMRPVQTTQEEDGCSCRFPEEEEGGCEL
T7 sequence (P25942 21-193): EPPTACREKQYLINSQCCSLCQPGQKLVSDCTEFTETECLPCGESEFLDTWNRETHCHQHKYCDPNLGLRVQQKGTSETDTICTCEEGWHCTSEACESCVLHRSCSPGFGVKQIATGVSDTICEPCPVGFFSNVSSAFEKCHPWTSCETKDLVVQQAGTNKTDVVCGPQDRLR

B1: FS20-22-49AA/FS30-5 variant, Methionine (100H) to L (bispecific antibody, V domains shown)
VH: EVQLLESGGGLVQPGGSLRLNCAASGFTFSSYAMSWVRQAPGKGLEWVSAISGSGGSTYYADSVKGRFTISRDNSKNTLYLQMNSLRAEDTAVYYCARSYDKYWGSSMYSGLDYWGQGTLVTVSS
VL: EIVLTQSPGTLSLSPGERATLSCRASQSVSSSYLAWYQQKPGQAPRLLIYGASSRATGIPDRFSGSGSGTDFTLTISRLEPEDFAVYYCQQYYSYYPVTFGQGTKVEIKR
Question: How did the “fold change of cell binding at 10 nM against the parent clone” value [1] turn out when B1 was run?
Answer: The value was under 1.3 fold.

Question: And the “DO11.10-hCD137 T cell activation assay EC50 (nM), crosslinked” value [2]?
Answer: The value was 5.9 nM.

B2: FS20-22-49AA/FS30-16 variant, Methionine (100A) to P (bispecific antibody, V domains shown)
VH: EVQLLESGGGLVQPGGSLRLSCAASGFTFSNYAMHWVRQAPGKGLEWVSTIDPTDGATNYADSVKGRFTISRDNSKNTLYLQMNSLRAEDTAVYYCARSKYYTYPQYVALDYWGQGTLVTVSS
VL: EIVLTQSPGTLSLSPGERATLSCRASQSVSSSYLAWYQQKPGQAPRLLIYGASSRATGIPDRFSGSGSGTDFTLTISRLEPEDFAVYYCQQGSRFFPITFGQGTKVEIKR
notes: Single-site variant of the parent mAb^2 FS20-22-49AA/FS30-16
Question: B2 was tested. Which “fold change of cell binding at 10 nM against the parent clone” value [3] did it give?
Answer: Its value is under 1.6 fold.

B3: G1/MOR7480.1 (antibody, human IgG1, lambda)
heavy: not shown
light: SYELTQPPSVSVSPGQTASITCSGDNIGDQYAHWYQQKPGQSPVLVIYQDKNRPSGIPERFSGSNSGNTATLTISGTQAMDEADYYCATYTGFGSLAVFGGGTKLTVLGQPKAAPSVTLFPPSSEELQANKATLVCLISDFYPGAVTVAWKADSSPVKAGVETTTPSKQSNNKYAASSYLSLTPEQWKSHRSYSCQVTHEGSTVEKTVAPTECS
notes: human IgG1 without LALA; also called MOR7480.1 in IgG1 format
Question: What does the source list for B3?
Answer: Kd (cCD137-mFc-Avi): 0.34 nM; binding result (GITR-hFc-Avi): no binding; binding result (TNFRSF1B-Fc): no binding; binding result (DR6-Fc): no binding; binding result (NGFR-Fc): no binding; binding result (CD40-mFc): no binding; binding result (TNFRSF1A-Fc): no binding
